Laboratory results reported in patent US20210206856A1 (PANDION OPERATIONS, published 2021).

T1: human MAdCAM expressed on cells (human, UniProt Q13477 19-382)
T1 construct: whole, on cells; also called MADCAM1
T1 sequence (looked up): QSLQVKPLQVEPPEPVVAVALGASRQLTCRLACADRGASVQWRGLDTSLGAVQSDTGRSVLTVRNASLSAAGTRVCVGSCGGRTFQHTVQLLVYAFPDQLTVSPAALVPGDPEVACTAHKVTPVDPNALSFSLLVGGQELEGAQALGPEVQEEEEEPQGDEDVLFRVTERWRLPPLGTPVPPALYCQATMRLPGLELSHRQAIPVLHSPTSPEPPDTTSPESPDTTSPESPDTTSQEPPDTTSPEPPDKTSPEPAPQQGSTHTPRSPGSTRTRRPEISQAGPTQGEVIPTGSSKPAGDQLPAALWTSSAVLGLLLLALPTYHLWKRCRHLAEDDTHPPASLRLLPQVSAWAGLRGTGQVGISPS

T2: mouse MAdCAM expressed on cells (mouse, UniProt Q61826 22-405)
T2 construct: whole, on cells
T2 sequence (looked up): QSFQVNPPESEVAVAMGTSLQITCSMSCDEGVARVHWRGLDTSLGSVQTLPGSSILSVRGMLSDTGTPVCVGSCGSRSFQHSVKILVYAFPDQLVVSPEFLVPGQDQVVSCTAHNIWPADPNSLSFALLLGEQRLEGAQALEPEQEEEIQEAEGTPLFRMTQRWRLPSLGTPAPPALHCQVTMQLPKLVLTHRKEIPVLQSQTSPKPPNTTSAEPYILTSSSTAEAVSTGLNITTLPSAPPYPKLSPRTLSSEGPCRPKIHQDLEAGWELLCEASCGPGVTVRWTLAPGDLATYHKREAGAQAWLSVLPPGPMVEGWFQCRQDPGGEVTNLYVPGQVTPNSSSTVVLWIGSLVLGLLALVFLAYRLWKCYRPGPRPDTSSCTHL


What was measured:
[1] = target: T1, human MAdCAM expressed on cells; experiment: cell binding
[2] = target: T2, mouse MAdCAM expressed on cells; experiment: cell binding

Row | binding result [1] | binding result [2] | Binder
1 | binds | no binding | MAdCAM Antibody Table 2 Clone 55 (antibody, human IgG1, V domains shown) VH: EVQLLESGGGLVQPGGSLRLSCAASGFTFDDFAMHWVRQAPGKGLEWVSGISGNGDSRYYADSVKGRFTISRDNSKNTLYLQMNSLRAEDTAVYYCARDASYGGNYGMDVWGQGTTVTVSS VL: DIQMTQSPSSLSASVGDRVTITCQASQDIRNYLNWYQQKPGKAPKLLIYKASTLESGVPSRFSGSGSGTDFTLTISSLQPEDFATYYCQQANSFPLTFGPGTKVDIK
2 | binds | no binding | MAdCAM Antibody Table 2 Clone 57 (antibody, human IgG1, V domains shown) VH: EVQLLESGGGLVQPGGSLRLSCAASGFSVSSNYMSWVRQAPGKGLEWVAGISYDGSSKPYADSVKGRFTISRDNSKNTLYLQMNSLRAEDTAVYYCARSRGIAARPLQHWGQGTLVTVSS VL: not shown
3 | binds | no binding | MAdCAM Antibody Table 2 Clone 58 (antibody, human IgG1, V domains shown) VH: EVQLLESGGGLVQPGGSLRLSCAASGFSVSSNYMSWVRQAPGKGLEWVAGISYDGSSKPYADSVKGRFTISRDNSKNTLYLQMNSLRAEDTAVYYCARSRGIAARPLQHWGQGTLVTVSS VL: not shown
4 | binds | no binding | MAdCAM Antibody Table 2 Clone 53 (antibody, human IgG1, V domains shown) VH: QVQLVQSGAEVKKPGASVKVSCKASGYTFTSYYMHWVRQAPGQGLEWMGWMNPNSGNTGYAQKFQGRVTMTRDTSTSTVYMELSSLRSEDTAVYYCAREGLGYCTNGVCWNYYGMDVWGQGTLVTVSS VL: DIQMTQSPSSLSASVGDRVTITCRASQGISSWLAWYQQKPGKAPKLLIYGASSLQSGVPSRFSGSGSGTDFTLTISSLQPEDFATYYCQQSYSTPYTFGQGTKVEIK
5 | binds | binds | MAdCAM Antibody Table 2 Clone 60 (antibody, human IgG1, V domains shown) VH: EVQLLESGGGLVQPGGSLRLSCAASGFTFSDHGMHWVRQAPGKGLEWVSVIYGGESTYYADSVKGRFTISRDNSKNTLYLQMNSLRAEDTAVYYCARDPAVAGGGIFDYWGQGTLVTVSS VL: DIQMTQSPSSLSASVGDRVTITCRASQGISNYLAWYQQKPGKAPKLLIYDASNLETGVPSRFSGSGSGTDFTLTISSLQPEDFATYYCQQSYSTCYTFGQGTKLEIK
6 | binds | no binding | MAdCAM Antibody Table 2 Clone 56 (antibody, human IgG1, V domains shown) VH: EVQLVESGGGLVKPGGSLRLSCAASGFTFSSYWMSWVRQAPGKGLEWVSAIGTGGGTYYAAPVKGRFTISRDDSKNTLYLQMNSLKTEDTAVYYCAREWLVPYYGMDVWGQGTTVTVSS VL: DIQMTQSPSSLSASVGDRVTITCRASQSISRWLAWYQQKPGKAPKLLIYGASNLQSGVPSRFSGSGSGTDFTLTISSLQPEDFATYYCQQSYSTPWTFGQGTKVEIK
7 | binds | no binding | MAdCAM Antibody Table 2 Clone 54 (antibody, human IgG1, V domains shown) VH: QVQLVQSGAEVKKPGSSVKVSCKASGGTLSRYGVSWVRQAPGQGLEWMGGIIPIFGTTNYAQKFQGRVTITADESTSTAYMELSSLRSEDTAVYYCARDRVYYDSSGYPTWYFDLWGRGTLVTVSS VL: EIVMTQSPATLSVSPGERATLSCRASQSVSSSYLAWYQQKPGQAPRLLIYGASTRATGIPARFSGSGSGTEFTLTISSLQSEDFAVYYCQQYGSSPITFGQGTKVEIK
8 | binds | no binding | MAdCAM Antibody Table 2 Clone 52 (antibody, human IgG1, V domains shown) VH: EVQLLESGGGLVQPGGSLRLSCAASGFTFDDYGMSWVRQAPGKGLEWVSYISSSSSYIYYADSVKGRFTISRDNSKNTLYLQMNSLRAEDTAVYYCAREIAAAGFYGMDVWGQGTTVTVSS VL: not shown
9 | binds | no binding | MAdCAM Antibody Table 2 Clone 45 (antibody, human IgG1, V domains shown) VH: EVQLVESGGGLVKPGGSLRLSCAASGFTFGDYAMSWVRQAPGKGLEWVSYISGDIGYTNYAAPVKGRFTISRDDSKNTLYLQMNSLKTEDTAVYYCARDVAATGNWYFDLWGRGTLVTVSS VL: not shown
